Reference: the RNAGym collection of RNA variant scans (doi:10.7554/elife.80360)

B1: Twister Ribozyme (parent)
chain: AACACUGCCAAUGCCGGUCCCAAGCCCGGAUAAAAGUGGAGGGGGCGG

Variants of: B1
Experiment: self-cleavage, relative activity (ratio to wild type); higher = more cleavage; co-transcriptional

Variant | self-cleavage
C25U A40G | 0.121
G24A G38U | 0.126
C27A A33G | 0.294
C27A A33C | 0.245
C27A A33U | 0.334
C26U G47C | 0.181
C26U G47A | 0.149
C26U G47U | 0.15
C25A C46G | 0.0534
C25A C46U | 0.104
C25A C46A | 0.07
C25A G29U | 0.24
C25A G29A | 0.308
C25A G29C | 0.0958
C26G G38A | 0.0967
C26G G38U | 0.0977
C25G A34G | 0.124
C26U G44C | 0.172
G24C G28U | 0.0961
G24C G28A | 0.0981
G24C G28C | 0.135
G24C U31A | 0.0517
G24A U31A | 0.106
G24A U31C | 0.0777

Variant | self-cleavage
G24A G28A | 0.0708
C26U A30U | 0.556
C27G A33C | 0.0584
C27G A33U | 0.0804
C25A G42C | 0.115
C27A G39C | 0.0948
C26G U37A | 0.126
C26G U37C | 0.0957
C26G U37G | 0.115
C27A G43U | 0.122
G24A G43A | 0.102
G24A G43C | 0.107
G24U G48A | 0.0944
G24U G48U | 0.0921
G24A G44C | 0.0736
G24A G44A | 0.101
C25G G39C | 0.109
C25G G39U | 0.121
C25G U31G | 0.393
C26A A35U | 0.732
C26A A35G | 0.219
G24U A33G | 0.104
G24U A33C | 0.142
G24U A33U | 0.121

Variant | self-cleavage
C25A C26G | 0.0788
C26U A34U | 0.124
C26U A34C | 0.133
C26G A33G | 0.154
C26G A33U | 0.135
G24U A40G | 0.0745
C26U G36C | 0.129
C26U U31C | 0.495
C26U U31G | 0.503
C27A G29U | 0.132
C27A G29A | 0.382
C27A G29C | 0.0808
C25G C27U | 0.136
C25G C27G | 0.0774
C27A G41C | 0.152
C27A G41U | 0.0984
C26A G44U | 0.456
C26A G44A | 0.562
C26G G45U | 0.156
C26A G36A | 0.0875
G24C G43U | 0.0968
G24C G43C | 0.0497
G24U A30C | 0.0633
C25U G47C | 0.248

Variant | self-cleavage
C25U G47A | 0.663
C25G G28A | 0.346
C25G G28U | 0.259
C25G G38C | 0.229
C27A A30G | 0.529
C26G G39A | 0.0939
C26A G28A | 0.168
C25G U37C | 0.102
G24A U37A | 0.0684
G24C G29C | 0.104
C25U G41U | 0.198
C25U G41A | 0.194
G24A G45A | 0.122
C25A A33C | 0.0788
C26G G48U | 0.146
C26G G48C | 0.229
C26G G29C | 0.134
C26G G29U | 0.0569
C26G G29A | 0.132
G24U G28C | 0.0992
G24U G28A | 0.0754
G24A G39A | 0.106
G24A G39U | 0.0747
C25G A32U | 0.19

Variant | self-cleavage
C25A C27A | 0.0772
G24C G48U | 0.0846
G24C G48C | 0.116
G24C G48A | 0.0988
C25U C27A | 0.509
C25U C27U | 0.74
C25U C27G | 0.101
G24C C25U | 0.114
G24U G47U | 0.0704
G24U G47A | 0.094
G24C C27G | 0.134
G24C C27A | 0.121
G24A G47C | 0.11
C25U G44A | 0.811
C25U G44U | 0.809
C26A G38C | 0.395
C25G G36C | 0.0714
C25G G36A | 0.103
C26A G47U | 0.144
G24U G42C | 0.0781
G24U G42A | 0.0906
G24U U37C | 0.0947
G24U U37G | 0.092
C26G U31C | 0.165

Variant | self-cleavage
C26G U31A | 0.427
C25U G48U | 0.813
G24U G36C | 0.0879
G24U G36A | 0.124
C25A G36C | 0.0709
C26U G42A | 0.13
C26U G42U | 0.15
C26U G42C | 0.15
G24U C26U | 0.122
G24U C26G | 0.0895
G24U C26A | 0.0928
C26A U31G | 0.691
C26G A40C | 0.113
C26G A40U | 0.12
G24U G39U | 0.0828
G24U G45C | 0.0947
G24U G45U | 0.091
G24U G45A | 0.0796
G24U C27U | 0.13
C27A G47C | 0.183
C25G G41U | 0.133
C25G G41C | 0.133
C26G G41A | 0.128
C26U G43C | 0.0933

Variant | self-cleavage
C26U G43U | 0.111
C26U G43A | 0.125
C25U G42U | 0.0953
C25U G42C | 0.154
C25U G42A | 0.148
C27A G45C | 0.144
G24A G48C | 0.112
G24A G48A | 0.121
G24A G48U | 0.0761
G24U G41C | 0.0917
G24U G41A | 0.0908
C25U G43A | 0.151
C25U G43C | 0.102
C25A G48C | 0.137
G24C A33U | 0.0768
G24C A33C | 0.146
C27A G48A | 0.275
C27A G48U | 0.397
C27A A34U | 0.145
C25G G42U | 0.112
G24U G29A | 0.127
C25A G45C | 0.0975
C25A G45A | 0.0857
C25U G38A | 0.581

Variant | self-cleavage
C26U G38U | 0.201
C25G C26G | 0.0826
C25G C26U | 0.0513
G24U A34U | 0.116
C26G A32C | 0.141
C26G A32G | 0.316
C25U G36A | 0.263
C26G G43U | 0.138
C25G G43U | 0.133
C27G A32C | 0.137
C27G A32U | 0.115
C25A A40G | 0.0786
C25A A40C | 0.114
C27A U31G | 0.629
C27A U31A | 0.676
C27A G42U | 0.113
C27A G42C | 0.139
C26G G42U | 0.13
G24C U37A | 0.107
G24A G41U | 0.082
G24A G41C | 0.0854
C27G A34C | 0.0686
C26U G45C | 0.0973
C26U G45A | 0.232

Variant | self-cleavage
C27A A32C | 0.484
C26G A30U | 0.295
C26G A30C | 0.0641
G24C G47C | 0.0946
G24C G47A | 0.0965
G24C A35C | 0.0752
C25G C46G | 0.223
C25G C46A | 0.148
G24C G45C | 0.0828
G24C G45A | 0.0924
C25A A35C | 0.141
C25A A35G | 0.0612
C25A A35U | 0.135
C26G G44C | 0.149
G24C G36U | 0.0983
C25U U31G | 0.627
C25U U31A | 0.666
C25U G45U | 0.592
C25U G45A | 0.587
G24C C26G | 0.0413
G24C G44A | 0.0864
G24C G44C | 0.0955
C26A A34G | 0.156
C26A A34U | 0.177

Variant | self-cleavage
C26A A34C | 0.0918
C25G G44U | 0.197
C25G G44C | 0.248
C26G C27U | 0.0811
C26A A30G | 0.348
G24U G38C | 0.103
C26U G41A | 0.109
C26U C46U | 0.519
C26U C46G | 0.307
C26U C46A | 0.207
C26G A35U | 0.497
C26U G29A | 0.212
C26A G45C | 0.123
C25U C26U | 0.132
C25U C26G | 0.131
C26A G39C | 0.0938
C26G G36C | 0.0652
C25G G48A | 0.193
C25G G48C | 0.167
C25G G48U | 0.21
C25U A35U | 0.764
C25U A35G | 0.46
C26U U37A | 0.121
C27A G36A | 0.121

Variant | self-cleavage
C27A G36U | 0.128
C27A G36C | 0.123
C27G A30U | 0.0941
G24U A32U | 0.0649
G24U A32G | 0.113
C25G G29A | 0.564
C25A A34G | 0.1
C25A A34U | 0.0738
G24U G43C | 0.076
C25U A32G | 0.804
C25U A32C | 0.903
C25G A30U | 0.31
C25G A30G | 0.625
C27A A40C | 0.155
C26A G41U | 0.154
C26A G41C | 0.124
C26A G41A | 0.101
C26A U37G | 0.17
C26A U37A | 0.118
G24C G42U | 0.0759
G24C G42A | 0.105
G24C G42C | 0.0931
C25A U31G | 0.127
C25A U31C | 0.138

Variant | self-cleavage
G24C A40U | 0.0978
C25U G28C | 0.412
C25U G28U | 0.724
C26G G28A | 0.101
C26A C46A | 0.338
C26A G48C | 0.434
C26A G48A | 0.304
C26A G48U | 0.355
C26A C27A | 0.173
G24C C46U | 0.126
G24C C46G | 0.105
C25U A34U | 0.633
G24C A34C | 0.0955
G24C A34U | 0.0578
C26G C46A | 0.153
C26G C46G | 0.218
C25A A30C | 0.0625
C25A A30G | 0.233
C26A G42U | 0.109
G24U C46A | 0.0884
G24U C46U | 0.0749
C25A G41A | 0.074
C25A G41C | 0.106
C25U A33C | 0.791

Variant | self-cleavage
C27A G28U | 0.37
C27A G28C | 0.323
C26A A33U | 0.534
G24C G41A | 0.109
C25A G28A | 0.166
C25A A32U | 0.078
C25A A32G | 0.0602
G24U U31A | 0.113
C26A A32G | 0.636
C25A U37G | 0.0674
C25A U37A | 0.106
C26G A34C | 0.0761
G24U C25U | 0.0725
G24U C25A | 0.115
G24U C25G | 0.104
C25A G38C | 0.126
C25A G38A | 0.0977
G24C G39A | 0.0888
G24C G39U | 0.0664
C25A G47U | 0.0657
C25A G47C | 0.0869
C25U G39A | 0.141
C26U G39C | 0.0911
C26U G39U | 0.102

Variant | self-cleavage
C26U A40U | 0.131
C26U A40G | 0.0722
C26U A40C | 0.131
C26A A40C | 0.119
C26A A40U | 0.107
C25G A33U | 0.246
C25G A33C | 0.227
G24A G36A | 0.0947
G24A G36U | 0.0791
C25U A30C | 0.53
G24U A35C | 0.133
G24U A35U | 0.175
C25A G39U | 0.115
C25A G39C | 0.0833
C25A G39A | 0.0801
C25G A35U | 0.299
G24A G42A | 0.0855
C26U A33U | 0.266
C26U A33G | 0.17
C26U A33C | 0.203
C25U U37G | 0.332
G24A G29C | 0.0767
